Paper PMC3156286 (Journal of molecular biology, 2011)

Molecular target: the molecule itself
Experiment: SEC

B1: full length Nhp2p (natural protein, S. cerevisiae, UniProt P32495 1-156, looked up)
chain: MGKDNKEHKESKESKTVDNYEARMPAVLPFAKPLASKKLNKKVLKTVKKASKAKNVKRGVKEVVKALRKGEKGLVVIAGDISPADVISHIPVLCEDHSVPYIFIPSKQDLGAAGATKRPTSVVFIVPGSNKKKDGKNKEEEYKESFNEVVKEVQAL
  stoichiometry N: 2
